Assay: soluble on expression in E. coli; label from the status in PepcDB or PDB records

Row | Sequence | soluble on expression in E. coli
1 | MGSDKIHHHHHHMAFDEMINADSSPRQPYSTYHQWYASQDRNRLIAKSKEAEKIFRKTGITFAVYGHADSSEKLIPFDLIPRIISGREWRRLAQGIEQRVIALNAFLDDIYHKQEIIRAGRIPRELVEKNDTFLPQMIGFRPPGGVYTHIVGTDIVRTGEDQYYVLEDNARTPSGVSYMLENRETMMQMFPELFHQNRVRPVENYPNLLRQSLSSLAPAGCEGKPRVAVLTPGIYNSAFYEHAFLADMMGVELVEGSDLRVIDGRVKMRTTRGYEAIDVLYRRVDDDFLDPLTFRPDSALGIPGIMDVYRAGNITIANAPGTGISDDKAIYSYMPEIVEFYTGRKPLLENVPTWRCSEPESLKYVLEHLAELVVKEVHGSGGYGMLVGPTATKKECAAFAEKLKSRPGNYIAQPTLSLSTVPIMVNKGIAPRHVDLRPYVLVSDKVQIIPGGLTRVALKEGSLVVNSSQGGGTKDTWVLED | not soluble
2 | MATPYVPVPMPIGNSASSFTNNRNQRSSSFGSVSTSSTSSKGQLEDSAVGSLKQTNVQDQMDSASSMCGSPLIRTKFTGTDSSIEYSARPREAEEQHPEAVNWEDRPSTPTILGYEVMEERAKFTVYKILVKKSPEESWVVFRRYTDFSRLNDKLKEMFPGFRLALPPKRWFKDNYNAEFLEDRQLGLQAFLQNLVAHKDIANCLAVREFLCLDDPPGPFDSLEESRAFCETLEETNYHLQRELLEKQKEVESLKKLLGEKQLHIDALETRIRTLSLEPGASLYVSRAEGGQILRVEPSVLQVNRDVLDEESRADHKPHFNSREAGSVIAGIEVAQLAYNAEDD | soluble
3 | MSLAKSNDKTVTMYSIGPRLKAFSDWLLKTMAAGNLGVIFPAASREYAPLVEELWRDAAIQATYKRRSELGLLPSVANYFLERAIDVLTPDYEPSDVDILYAEGVTSSSGLACLDFSFPQTASEENLDPSDHHDSLLRYQLIRVPSRGLGENCKWIDMFEDVGMVVFVVSMSDYDQVSEDGTNKMLLTKKLFESIITHPIFENMDFLLILNKYDLLEEKVERVPLARCEWFQDFNPVVSRHRGSNNGNPTLGQLAFHFMAVKFKRFYSSLTGKKLFVSSSKSLDPNSVDSSLKLAMEILKWSEERTNICMSEYSMYSTEGHHHHHH | not soluble
4 | MVMEVDEPAVAATTSQNQPQEHANDFDMDTSEGPIENDETFEPVDQINWKFNQVKGNIDADVHTEADVISCVEFSHDGEYLATGDKGGRVVIFQRDQSGKYVKGVRSREYNVYSTFQSHEPEFDYLKSLEIDEKINQIRWLKKKNAANFILSTNDKTIKLWKISERERKIGDDAWNLPRTNRINTSSFRGRLQIPSIVPMELIVEASPRRVYGNAHTYHVNSISVNSDQETFLSADDLRVNLWNLEITNESFNIVDIKPANMEELTEVITAAEFHPTQCNWFVYSSSKGSIRLCDMRDRALCDAYAKIFEEPEDPQSRSFFSEIIASVSDVKFSHNGRYLLTRDYLTVKVWDLNMESQPVETYPVHNYLRTKLCALYENDSIFDKFECDWSGDDKHILTGSYHNLFRSYARGNNQDAKTWEARPQEPHSQLRSRFVVPSAKRKRNNLSSSGETTEEDLSSDQLQFDRKILHTAWHPKDNIIALAATNNLYIFSDV | not soluble
5 | MKIGIVIPAHNEEQHLSACLQSIQQAIQHTGHEQVEILVVLDSCTDQSRSVVESHQVNWIECNFACVGKARDLGIRQLIDQGVIWVACTDADTIVDSDWILCQMLHQPTDAICGVVTLDDLSHLSVQQQQKYLAHYQDSMDHQHIHGANLSFSAEAYIQAGGFEPIPCHEDVSLIEKFIKQCCKVTRSNLEHHHHHH | not soluble
6 | DVQLQESGGGLVQAGGSLRLSCAASGATGSTYDMGWFRQAPGKERESVAAINWGSAGTYYASSVRGRFTISRDNAKKTVYLQMNSLKPEDTAVYTCGAGRIGRSVFNLRRESWVTWWGQGTQVTVSS | soluble
7 | MAHIVIVGAGLGGLPTAYELRHILPKQHQVTVISETPYFTFIPSLPWVAMGLTSLESIQVSLQQRLKQKGINWILGRVDYLNPQNQKISLGEQSISYDYLIIATGAELALDAVAGLGPDGYTQSVCNPHHAIKAFQAWQNFLLAPGPLVVGALPKTSCLGPAYEFTLLADYVLRKQGLREQVSITFVTPEPYAGHLGIGGMANSAELVTKFMAERGVEVIENVAVTAIEANQIHLGNGRVLPFAYSMLLPPFRGPRFVRQVPGLSNQDGFIPVLPTYRHPEYASIYAVGVVVEIKPSEVTPLPLGVPKTGQMTEAMGMAVAHNIAIELGVFSAPPVTPTLDAICFADFGNSGILFLANPVLPDLATGKRRRAVALSGAWVTWAKAAFERYFLAKMRFGTAVPWFEKLALKLLGLSLVAPLAVKSSRNISQENYLEHHHHHH | not soluble
8 | QNLGAAVAILGGPGTVQGVVRFLQLTPERCLIEGTIDGLEPGLHGLHVHQYGDLTNNCNSCGNHFNPDGASHGGPQDSDRHRGDLGNVRADADGRAIFRMEDEQLKVWDVIGRSLIIDEGEDDLGRGGHPLSKITGNSGERLACGIIARSAGLF | soluble
9 | MGSDKIHHHHHHMAATSDYDVIVVGGGHNGLTCAGYLARAGKRVLVLERRPIVGGAVCTEEVIPGYKIDVGSSAHIMIHLTPIVRDLELERHGLEYIDMDPYAFYPLPDGSGAIYFYRDVERTCQSIATVSPRDAEAYRRFLDFWTPLNEAVFDVFLNPPSVTRLFGKVASSIPRLPKAEQKVLEVTRRLFTSYAQLIEETFESEAMRAAMTWLAAQSGPPPDEIGAGDFFGWHAMLHYSGAKHPRGGSGMLTQAMARSLKAMGGEVILDAPVRRILVQNGRVQAWKRQTVSAIRPRLLFPTLTC | not soluble
10 | MAHHHHHHMVDYGEGGKNGSLDTVRQTLVCATRILMLAVSCKKVQLIYTLLPFMALIFKELLVSDDEERLRALFSDAKGQCALAGLRRSTANLSLLLDTEQDFTTLSSPWSFSYDTSEVGMKEIRSLTTFLVSGDSGLSEALEYVTTDCLRSGRLLTLYEIVRGFSLSPYGMMELKLDEVRDPHCGVSSHGEGSSVRGHFPHLPTHGELFLNLFTGIHEEFSLTRSPRCVGNELRRHRSSVVGAEVATTDFTLWTLAQSILYSTPGLPETLRHLRDHFAMWDECVLAINIILMCFTDVVHQLRRHSELVQALQHLLVDERNCGYKSFIRYCLENVS | not soluble
11 | MSDSDAMTDPNAVSYSNAIVVLCTAPDEASAQNLAAQVLGEKLAACVTLLPGATSLYYWEGKLEQEYEVQLLFKSNTDHQQALLTYIKQHHPYQTPELLVLPVRDGDKDYLSWLNASLL | not soluble
12 | MDITITLDRSEQADYIYQQIYQKLKKEILSRNLLPHSKVPSKRELAENLKVSVNSVNSAYQQLLAEGYLYAIERKGFFVEELDMFSAEEHPPFALPDDLKEIHIDQSDWISFSHMSSDTDHFPIKSWFRCEQKAASRSYRTLGDMSHPQGIYEVRAAITRLISLTRGVKCRPEQMIIGAGTQVLMQLLTELLPKEAVYAMEEPGYRRMYQLLKNAGKQVKTIMLDEKGMSIAEITRQQPDVLVTTPSHQFPSGTIMPVSRRIQLLNWAAEEPRRYIIEDDYDSEFTYDVDSIPALQSLDRFQNVIYMGTFSKSLLPGLRISYMVLPPELLRAYKQRGYDLQTCSSLTQLTLQEFIESGEYQKHIKKMKQHYKEKRERLITALEAEFSGEVTVKGANAGLHFVTEFDTRRTEQDILSHAAGLQLEIFGMSRFNLKENKRQTGRPALIIGFARLKEEDIQEGVQRLFKAVYGHKKIPVTGD | not soluble
13 | MGSDKIHHHHHHMTAKTFELGPGYTISRVIRGGWQLAGGHGAIDRSQAVTDLIATFDAGIWTYDCADIYTGVEELIGAARLRLASERGLDVAAKMKVHTKLVPDLERLATISRDYIRGIVEQSLRRLKTERLDLVQFHWWDYDQPRYVEAMGWLDELRREGKVRNLGTTNFDTPRLAEILAAGIPLVSQQLQYSVLDQRPAHSLAELAAKNGVSFLCYGSVAGGFLSDKWLGVAEPATPLENRSLVKYKLIIDDFGGWDLFQQLLQALKAVGDRHGVDIATIASAWVLKQPRVAAVIVGARNQAHALANARIMDVALDADDRAKIAAVIAQSQGPLGDVYTLERDRHGRHGSIMHYNLNAGRT | not soluble
14 | MGSDKIHHHHHHMRDMCSISGIIVKDNQISAKYSIDMMKILKHRGRDNSGLLLDDEVIYFNDFEDVEDLEEEMIGNLSLAHNRLAIVGRYGVQPIPNEDETIWLVCNGEIYNYIELREYLKQNHEFRTDSDNEVIIHLYEEEKLEELDGDYAFAIYDKSKNVVRLARDMFGVKPLFYVDRDKYFAFASERKALWHLLINIDGCERDLDELNSKIKTLKPNSQLIYYLDDNRFEIIEGFKKLELNYMKERSYEEAKEYLDRALKNSVLKRVRGLDKVGIICSGGVDSSLIAKLASLYCEVILYAVGTENSEDLIYAERLAKDLNLKLRKKIISEEEYEEYVFKVAKAIDEVDLMKIGVGIPIYVASEMANEDGLKVVLSGQGADELFGGYARHERIYRERGEEELKKELLKDVYNLYKVNLERDDHCTMANGVELRVPFLDEEVVEIALSIPIEYKMSELSNRPYAESNISLKSEPINGLKNTNLNIKCVRSVRKKILRDVASQYLPDYIAYRPKKAAQYGSGGEKMIYKVAKKYGFSKKRINEFLDMLKRKIVSEF | not soluble
15 | MGHHHHHHSHMSDAGMPSLSDPGMSLAAYALKHNIQYDVLPGANALTTAFCASGFLEGRFFYAGFLPHKSKERRLKIAKILNALAYLEEKTPVVFYESPHRLLETLKDLNDLAKGMHLFAAKELTKLHQQYYLGEVSQIIERLQQSTIQGEWVLVLLNEKKIEPCMGLSALLELDLPPKIKAKIEAVMTQKNAKELYFQRLLEEKNQ | not soluble
16 | MGSDKIHHHHHHMAKADLDKDPFDVASMFDDVGKNYDLTNTVLSFGQDRVWRKRTRQRLDLKPGEKVLDLAAGTAVSTVELAKSGAFCVACDFSQGMLAAGKDRDVSKVVGDGMQLPFADNSFDAVTISYGLRNIHDFRAGLKEMARVTKPGGRLTVAEFSTPVIPVFGTVYKEYLMRLLPQAARAVSSNPEAYIYLADSIRAWPSQAELAREINQNGWSDCGWQNLTFGIVALHSAIKPEN | not soluble
17 | MKVNILMATYNGEKFLAQQIESIQKQTFKEWNLLIRDDGSSDKTCDIIRNFTAKDSRIRFINENEHHNLGVIKSFFTLVNYEVADFYFFSDQDDVWLPEKLSVSLEAAKHKASDVPLLVYTDLKVVNQELNILQDSMIRAQSHHANTTLLPELTENTVTGGTMMINHALAEKWFTPNDILMHDWFLALLAASLGEIIYLDLPTQLYRQHDNNVLGARTMDKRFKILREGPKSIFTRYWKLIHDSQKQASLIVDKYGDIMTANDLELIKCFIKIDKQPFMTRLRWLWKYGYSKNQFKHQVVFKWLIATNYYNKRLEHHHHHH | soluble
18 | MKKPTSAPRSKAFGKQRRKTREELNQEARDRKRLKKHRGHAPGSRAAGGNSASGGGNQNQQKDPRIGSKTPVPLGVTEKVTQQHKPKSEKPMLSPQAELDLLETDERLDALLERLEAGETLSAEDQAWVDAKLDRIDELMQKLGLSYDDDEEDDEEDEKQEDMMRLLRGGN | not soluble
19 | MDCRLGCGACCIAPSISSPIPGMPKGKPAGVRCVQLNDDNLCKLFGKPERPKVCHDFKPCPVVCGKTNQEALDNITELEQLTLEHHHHHH | soluble
20 | MPGTLSFPSDAFPAYPALEIDQPDGWVALAGVGLPLALAAEVPSGQFRPNVLVTVQRFGVGHTVADSRSAVNKSLKALPRFTQTLREDSIEMLGSPGMRVEGYFSDGKGGTMVQALRMCVVEAGPVFDVVQITGTCSGPQTEAFFGQIREIQDTLRLAG | not soluble
21 | MENKEISYEIIDFSGETNVQFRTSVDPGSYIPTHWHRAIEIIYMQEGSLDVIVESESFTIYKGDCILVNGNVLHSTKCTAPNTAILLQIPLNFMEKYIPNLGQLIFLWDYRTEDPVKKTKLMMLKTTLEQLQVINDIQPDGYLLRFNSLIFELMFQLYHNFSVQVFPQDINHKKKEMDRLDP | not soluble

From the DeepSol protein solubility set
